According to patent publication US20100028342A1 (published 2010):
“And” between values parts separate entries of the source, which are not always exact repeats. Equal entries are not always repeated.

Columns and labels:
[1] = target: T1, native human IGF-IR on human tumor cells (human, UniProt P08069 31-1367); experiment: competition: blocking of IGF-I binding to HPAC cells (pancreatic)
T1 construct: whole, on cells; also called native IGF-IR; endogenous cellular IGF-IR

[2] = target: T1, native human IGF-IR on human tumor cells; experiment: competition: blocking of IGF-I binding to HT-29 cells (colorectal)
[3] = target: T2, recombinant mouse IGF-IR (mIGF-IR) (mouse, UniProt Q60751 31-933, limits assumed); experiment: ELISA on immobilized recombinant mouse IGF-IR
T2 construct: also called mIGF-ER
T2 sequence (Q60751 31-933 limits assumed): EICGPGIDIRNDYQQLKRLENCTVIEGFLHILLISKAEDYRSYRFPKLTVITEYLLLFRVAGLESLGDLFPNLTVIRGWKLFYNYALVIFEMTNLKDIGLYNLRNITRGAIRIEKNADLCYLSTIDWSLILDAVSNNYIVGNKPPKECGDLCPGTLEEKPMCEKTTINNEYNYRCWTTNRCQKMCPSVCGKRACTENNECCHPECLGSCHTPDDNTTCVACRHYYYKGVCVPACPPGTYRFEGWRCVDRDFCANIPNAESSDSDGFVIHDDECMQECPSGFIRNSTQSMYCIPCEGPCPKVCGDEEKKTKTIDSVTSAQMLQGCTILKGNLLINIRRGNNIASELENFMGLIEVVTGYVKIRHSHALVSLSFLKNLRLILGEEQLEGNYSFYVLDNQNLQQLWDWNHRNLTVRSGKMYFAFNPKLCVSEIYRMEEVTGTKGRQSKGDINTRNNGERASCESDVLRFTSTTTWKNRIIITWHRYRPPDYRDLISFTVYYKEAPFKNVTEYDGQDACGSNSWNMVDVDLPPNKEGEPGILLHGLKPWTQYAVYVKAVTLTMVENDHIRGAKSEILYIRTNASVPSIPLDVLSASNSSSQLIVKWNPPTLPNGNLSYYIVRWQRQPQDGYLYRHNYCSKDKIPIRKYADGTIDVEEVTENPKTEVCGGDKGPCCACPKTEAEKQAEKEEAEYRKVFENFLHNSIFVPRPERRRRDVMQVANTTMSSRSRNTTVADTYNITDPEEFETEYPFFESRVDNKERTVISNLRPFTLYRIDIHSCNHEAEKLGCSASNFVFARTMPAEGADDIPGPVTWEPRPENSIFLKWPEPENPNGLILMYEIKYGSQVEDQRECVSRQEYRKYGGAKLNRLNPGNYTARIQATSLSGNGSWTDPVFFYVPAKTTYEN

[4] = target: T1, native human IGF-IR on human tumor cells; experiment: competition: blocking of IGF-I binding to T47D cells (breast)
[5] = target: T1, native human IGF-IR on human tumor cells; experiment: competition: blocking of IGF-I binding to SK-ES1 cells (Ewing sarcoma)
[6] = target: T1, native human IGF-IR on human tumor cells; experiment: competition: blocking of IGF-I binding to MCF7 cells (breast)
Experimental: (§1) The anti-IGF-IR antibodies were tested for blocking of radiolabeled ligand binding to native IGF-IR on human tumor cells (FIG. 1C). Assay conditions were performed according to Arteaga and Osborne (Cancer Res. 49:6237-41 (1989)), with minor modifications. MCF7 human breast cancer cells were seeded into 24 well dishes, and cultured overnight. Sub-confluent monolayers were washed 2-3 times in binding buffer (Iscove's Medium/0.1% BSA) and antibody added in binding buffer. […] The wells were then washed three times with ice-cold PBS/0.1% BSA. Monolayers were then lysed with 200 μl 0.5N NaOH and counted in a gamma counter.

[7] = target: T1, native human IGF-IR on human tumor cells; experiment: competition: blocking of 125I-IGF-I binding to IGF-IR on MCF7 cells
Experimental: as §1

[8] = target: T1, native human IGF-IR on human tumor cells; experiment: competition: blocking of IGF-I binding to BXPC3 cells (pancreatic)
[9] = target: T1, native human IGF-IR on human tumor cells; experiment: competition: blocking of IGF-I binding to OV90 cells (ovarian)
[10] = target: T1, native human IGF-IR on human tumor cells; experiment: competition: blocking of IGF-I binding to 8226 cells (myeloma)

Binder	IC50 [1] [nM]	IC50 [2] [nM]	EC50 [3] [nM]	IC50 [4] [nM]	IC50 [5] [nM]	IC50 [6] [nM]	IC50 [7]	IC50 [8] [nM]	IC50 [9] [nM]	IC50 [10] [nM]
antibody A12 (fully human IgG1 anti-IGF-IR antibody) (antibody, V domains shown, also called A12 IgG) VH: EVQLVQSGAEVKKPGSSVKVSCKASGGTFSSYAISWVRQAPGQGLEWMGGIIPIFGTANYAQKFQGRVTITADKSTSTAYMELSSLRSEDTAVYYCARAPLRFLEWSTQDHYYYYYMDVWGKGTTVTVSS VL: SSELTQDPAVSVALGQTVRITCQGDSLRSYYATWYQQKPGQAPILVIYGENKRPSGIPDRFSGSSSGNTASLTITGAQAEDEADYYCKSRDGSGQHLVFGGGTKLTVLG	10	10	0.3 to 0.5	6	2	3	0.45 µg/mL	20	6	20
antibody 2F8 (fully human IgG1 anti-IGF-IR antibody) (antibody, V domains shown, also called 2F8 IgG) VH: EVQLVQSGAEVKKPGSSVKVSCKASGGTFSSYAISWVRQAPGQGLEWMGGIIPIFGTANYAQKFQGRVTITADKSTSTAYMELSSLRSEDTAVYYCARAPLRFLEWSTQDHYYYYYMDVWGKGTTVTVSS VL: SSELTQDPAVSVALGQTVRITCQGDSLRSYYASWYQQKPGQAPVLVIYGKNNRPSGIPDRFSGSSSGNTASLTITGAQAEDEADYYCNSRDNSDNRLIFGGGTKLTVLS							30 nM and 4.5 µg/mL			
